Like-named read-outs stand apart in the source and are kept apart here.
Target: T1, N-terminal region plus central region, central region only, central region plus C-terminal region of CRH (Homo sapiens, UniProt P06850)
T1 construct: N-terminal region plus the central region (CT biotin), the central region only (NT biotin or CT biotin)
Assay: ELISA determining the binding region of CRH
Settings: dash = no binding
Procedure: Streptavidin (Thermo, Cat: 21125) was diluted in PBS to a concentration of 2 μg/ml. 100 μl of diluted streptavidin was added per well to ELISA microplates, and the plates were incubated overnight at 4° C. Plates were blocked with ELISA blocking solution (containing 2% w/v BSA, 0.05% (v/v) Tween-20, pH 7.4 PBS buffer) at 37° C. for 1 hour, and then incubated with 1 μg/mL N-terminal region plus the central region (CT biotin), the central region only (NT biotin or CT biotin), or the central region plus C-terminal region (NT biotin) of CRH for 1 hour at 37° C. Plates were then washed and incubated with diluted anti-CRH antibody (Ab) at 15 μg/ml (100 nM, 10 diluted, 8 points) for 1 hour at 37° C. Subsequently, plates were washed and incubated with HRP-conjugated goat anti-human IgG (H+L) antibody (Jackson, Cat: 109-035-088) at 37° C. for 1 hour. 100 μL of 3,3′,5,5′-tetramethylbenzidine (TMB) substrate (Biopanda, Cat: TMB-S-003) was added, and the plates were incubated at room temperature for 15 minutes. 100 μL of ELISA stopping solution (Solarbio, Cat #: C1058) was added to terminate the reaction, and the optical density at 450 nm (OD450 nm) was determined by an ELISA plate reader (Molecular Devices, Spectra max 384 plus).

EC50 (central plus C-terminal region CRH peptide, NT-biotin (SEQ ID NO: 483), read-out: ELISA EC50 C-Ter-CRH (NT-Bion)): > 100 nM
EC50 (central region CRH peptide, CT-biotin (SEQ ID NO: 485), read-out: ELISA EC50 Central-CRH (CT-Bion)): > 100 nM
EC50 (central region CRH peptide, NT-biotin (SEQ ID NO: 484), read-out: ELISA EC50 Central-CRH (NT-Bion)): > 100 nM
B1: PR302334-26: humanized variant of Series 9 mAb PR302334; VH SEQ ID NO: 277, VL SEQ ID NO: 328 (antibody, V domains shown)
VH: EVQLVESGGGLVQPGGSLRLSCAASGFTFSTYAMSWVRQAPGKGLEWVASIRSGGTTYYPDSVKGRFTISRDNSKNSLYLQMNSLRAEDTAVYYCTRGIDWGQGTTVTVSS
VL: DIVMTQSPDSLAVSLGERATINCKASQSVNNDVAWYQQKPGQPPRLLIYYASNRYTGVPDRFSGSGSGTDFTLTISSLQAEDLAVYFCQQDYSSWTFGGGTKVEIK
modifications: PR302334-18 VH, PR302334-26 VH, PR302334-27 VH; PR302334-10 VL, PR302334-24 VL, PR302334-26 VL, PR302334-4 VL

Source: patent publication US20260042834A1, “ANTI-CORTICOTROPIN-RELEASING HORMONE ANTIBODIES AND POLYCYSTIC OVARY SYNDROME” (HBM ALPHA THERAPEUTICS, INC., priority 2022, published 2026)
